Tested on: SLC16A11
Assay: SLC16A11 protein-protein interaction study (immunoprecipitation, quantitative mass spectrometry)
Parameters: species or system human
Settings: putative SLC16A11^REF interaction partners; immunoprecipitation from HEK293T cells vs empty vector control; Blandt-Altman

Row | Molecule | BA log fold change
1 | EMC3 (protein) AGPELLLDSNIRLWVVLPIVIITFFVGMIRHYVSILLQSDKKLTQEQVSDSQVLIRSRVLRENGKYIPKQSFLTRKYYFNNPEDGFFKKTKRKVVPPSPMTDPTMLTDMMKGNVTNVLPMILIGGWINMTFSGFVTTKVPFPLTLRFKPMLQQGIELLTLDASWVSSASWYFLNVFGLRSIYSLILGQDNAADQSRMMQEQMTGAAMAMPADTNKAFKTEWEALELTDHQWALDDVEEELMAKDLHFEGMFKKELQTSIF | 1.65
2 | SLC25A3 (protein) AVEEYSCEFGSAKYYALCGFGGVLSCGLTHTAVVPLDLVKCRMQVDPQKYKGIFNGFSVTLKEDGVRGLAKGWAPTFLGYSMQGLCKFGFYEVFKVLYSNMLGEENTYLWRTSLYLAASASAEFFADIALAPMEAAKVRIQTQPGYANTLRDAAPKMYKEEGLKAFYKGVAPLWMRQIPYTMMKFACFERTVEALYKFVVPKPRSECSKPEQLVVTFVAGYIAGVFCAIVSHPADSVVSVLNKEKGSSASLVLKRLGFKGVWKGLFARIIMIGTLTALQWFIYDSVKVYFRLPRPPPPEMPESLKKKLGLTQ | 1.65

From patent US11471462B2, “Compositions and methods for detecting and treating diabetes” (THE BROAD INSTITUTE, INC., priority 2016, dated 2022)
